Assay results from publication PMC2952587, “Identification of the Essential Brucella melitensis Porin Omp2b as a Suppressor of Bax-Induced Cell Death in Yeast in a Genome-Wide Screening” (PLoS ONE, 2010).

Molecular target: the molecule itself
Assay: semi-denaturing gel with Western blot

B1: Brucella melitensis porin Omp2b (natural protein)
chain: ADAIVAPEPEAVEYVRVCDAYGAGYFYIPGTEICLRVHGYVRYDVKGGDDVYSGTDRNGWDKGARFALRVSTGSETELGTLKTFTELRFNYAANNSGVDGKYGNETSSGTVMEFAYIQLGGLRVGIDESEFHTFTGYLGDVINDDVISAGSYRTGKISYTFTGGNGFSAVIALEQGGDNDGGYTGTTNYHIDGYMPDVVGGLKYAGGWGSIAGVVAYDSVIEEWAAKVRGDVNITDQFSVWLQGAYSSAATPDQNYGQWGGDWAVWGGLKYQATQKAAFNLQAAHDDWGKTAVTANVAYELVPGFTVTPEVSYTKFGGEWKNTVAEDNAWGGIVRFQRSF
notes: also called BMEI1305
stoichiometry N: 3
